± gives the uncertainty stated by the source.
test: protein stability index of a GFP-peptide fusion (yeast GPS) (PSI 1-4); higher = more stable; sorted into four equal gates, so the index is relative within each strain; conditions: pdr5∆
Summary of the method: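 Tiled yeast protein peptides of 17 residues were each joined downstream of GFP, on plasmids that also express Cherry. The pooled library was maintained in yeast, and mid-log cultures in leucine-free medium were sorted into four equal gates on the GFP/Cherry ratio. Plasmids from every gate were amplified by PCR and sequenced on Illumina, with barcodes linking reads to strains. The protein stability index of a peptide is its gate-number-weighted read frequency summed over the gates.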

Q: With QSEHLEAVVDQDVQRTC [FAS1] as the sequence, how does the protein stability index read?
A: 3.36 ± 0.14

same assay, conditions: san1∆

Q: With PSQGVHYKVPTDTSTTA [MED6] as the sequence, how does the protein stability index read?
A: 2.37 ± 0.06

Q: For PSSQSQNDTPMFKLGNF [YLR018C/POM34], which protein stability index is on record?
A: 2.79 ± 0.036

Q: With PSTGFKFSLPFEQKGSQ [YLR335W/NUP2] as the sequence, how does the protein stability index read?
A: 3.07 ± 0.087

Q: For PSYTHVLISKLSCEKIT [RRI1], which protein stability index is on record?
A: 2.12 ± 0.047

Q: With PTDDKTLKPTFSFTEPA [YOR098C/NUP1] as the sequence, how does the protein stability index read?
A: 2.91 ± 0.072

Q: For PTHYKIPAWFLNRQNDI [RPS18A], which protein stability index is on record?
A: 1.8 ± 0.071

Q: For PTIRSNAVLGLGDMAVC [YCS4], which protein stability index is on record?
A: 1.67 ± 0.13

Q: Which protein stability index does the source give for PTQTVAELDLMSGILHC [RPN6] here?
A: 2.95 ± 0.047

Q: For PTSDEPVPESAGKADTS [SRB4], which protein stability index is on record?
A: 2.88 ± 0.065

Q: For PTTNEPAKPALSFGTAT [YJL041W/NSP1], which protein stability index is on record?
A: 2.96 ± 0.053

Q: For PVGRELDPISLILIPGE [RPN13], which protein stability index is on record?
A: 3.13 ± 0.062

Q: Which protein stability index does the source give for PVIGVFQKFLTGHPKGA [FAS2] here?
A: 2.57 ± 0.2

Q: With PVLKKKAAFLGSEVRLR [COR1] as the sequence, how does the protein stability index read?
A: 2.97 ± 0.07

Q: With PVNSADGKEDVEKGTPL [SME1] as the sequence, how does the protein stability index read?
A: 3.52 ± 0.058

Q: With PVQIVKRITQITIEPGV [RPS20] as the sequence, how does the protein stability index read?
A: 1.35 ± 0.21

Q: Which protein stability index does the source give for PVQSKFGRKKRKGGPAT [RPT2] here?
A: 2.99 ± 0.095

Q: Which protein stability index does the source give for PWCVKPEYLAMYGLTME [ITC1] here?
A: 2.79 ± 0.081

Q: Which protein stability index does the source give for PWYNNPVSCIIQNDEEY [PRP8] here?
A: 2.43 ± 0.13

Q: With PYAIIKGKARLGTLVNQ [RPL8B] as the sequence, how does the protein stability index read?
A: 1.28 ± 0.063

Q: With PYLLETYANVLIPCKYL [RPN7] as the sequence, how does the protein stability index read?
A: 1.19 ± 0.099

Q: Which protein stability index does the source give for PYSKNAVEQLAGCKIDN [YDL088C/ASM4] here?
A: 2.41 ± 0.092

Q: Which protein stability index does the source give for QAAGGLSIRLTNQLKSL [RPN8] here?
A: 2.29 ± 0.11

Q: Which protein stability index does the source give for QALIHGLNRHYYSLNID [RPN11] here?
A: 2.44 ± 0.068

Q: With QANPTEESISKFPDMGS [RPB5] as the sequence, how does the protein stability index read?
A: 3.04 ± 0.074

Q: Which protein stability index does the source give for QAYEEIISSNENALIEL [YIL149C/MLP2] here?
A: 2.92 ± 0.071

Q: With QAYQFLNTFGSKICLSH [ITC1] as the sequence, how does the protein stability index read?
A: 1.63 ± 0.082

Q: With QDDDFPLDDAGTIGWDL [MCD1] as the sequence, how does the protein stability index read?
A: 3.36 ± 0.06

Q: For QDVLQMLGRAGRPRYDT [BRR2], which protein stability index is on record?
A: 3.43 ± 0.14

Q: For QEAIQQNRRLAFEELEG [PRP8], which protein stability index is on record?
A: 2.74 ± 0.24

Q: With QEDFEVVEEFTPVVLAT [RPS5] as the sequence, how does the protein stability index read?
A: 2.3 ± 0.046

Q: With QEGKISSVYRLKFAVQV [RPL26A] as the sequence, how does the protein stability index read?
A: 3.1 ± 0.095

Q: Which protein stability index does the source give for QEGLITTTMLQLFSTFD [SSN2] here?
A: 2.55 ± 0.056

Q: For QELRKKVNPNIMNMIEN [SMC2], which protein stability index is on record?
A: 2.37 ± 0.13

Q: For QESLLSRTFDKYSKLVD [SRP72], which protein stability index is on record?
A: 2.99 ± 0.055

Q: For QETQHGNITRGLAVGLA [RPN2], which protein stability index is on record?
A: 2.73 ± 0.062

Q: Which protein stability index does the source give for QFAPAFLNTPNNNINEN [SSN2] here?
A: 2.66 ± 0.068

Q: Which protein stability index does the source give for QFASPVRWIETQDVFLK [FAS2] here?
A: 2.25 ± 0.027

Q: For QFEIPISDDDDSALRYS [POP4], which protein stability index is on record?
A: 2.54 ± 0.049

Q: For QFISSRQFEVKQLQLAM [POP1], which protein stability index is on record?
A: 2.1 ± 0.067

Q: With QFNAITGLNGSGKSNIL [SMC2] as the sequence, how does the protein stability index read?
A: 3.18 ± 0.099

Q: Which protein stability index does the source give for QFNATINPESREIVMPA [ITC1] here?
A: 1.7 ± 0.13

Q: Which protein stability index does the source give for QFPEIAYPGKLICPQYG [CSL4] here?
A: 1.94 ± 0.1

Q: For QGIFKNSSNYFGELQFA [AAR2], which protein stability index is on record?
A: 2.41 ± 0.12

Q: For QGITRNVVNYLSINKNF [RPC17], which protein stability index is on record?
A: 1.23 ± 0.093

Q: With QHGFEVQVGPMKVFVTK [RPB7] as the sequence, how does the protein stability index read?
A: 2.43 ± 0.089

Q: Which protein stability index does the source give for QHIYPSSTPGVANYSAM [GAL11] here?
A: 3.01 ± 0.11

Q: With QHLQQLKMQQQQQQQQQ [GAL11] as the sequence, how does the protein stability index read?
A: 2.02 ± 0.12

Q: Which protein stability index does the source give for QHLRNEHGMNAPSVPEF [SNF2] here?
A: 2.96 ± 0.08

Q: With QHQSLSRSSSKNVNIED [ESC2] as the sequence, how does the protein stability index read?
A: 2.32 ± 0.11

Q: Which protein stability index does the source give for QIEKKEIKKMIITNINA [YCG1] here?
A: 2.7 ± 0.13

Q: With QIEKKKICRGRMNTIIT [SIR4] as the sequence, how does the protein stability index read?
A: 3.52 ± 0.24

Q: With QIISGNRVPDGFQDRSL [RPO31] as the sequence, how does the protein stability index read?
A: 3.06 ± 0.08

Q: Which protein stability index does the source give for QINNVHLIPNEIKGASE [RPN4] here?
A: 2.42 ± 0.06

Q: Which protein stability index does the source give for QINPTRETNDDIWRVAG [SNF2] here?
A: 2.25 ± 0.069

Q: For QKIMILQRTILNRIINH [RGR1], which protein stability index is on record?
A: 2 ± 0.076

Q: Which protein stability index does the source give for QKKVLIDGPKAGVPRQA [RPL14A] here?
A: 3.05 ± 0.059

Q: With QKRQLHDISKTETSNED [SNU114] as the sequence, how does the protein stability index read?
A: 2.98 ± 0.039

Q: Which protein stability index does the source give for QKSFEQLNSRAVAVVVD [RPN11] here?
A: 1.51 ± 0.16

Q: Which protein stability index does the source give for QKVLNAHRQRAMEARSS [SMC4] here?
A: 1.98 ± 0.15

Q: With QLAGKSGEDTNVGLPIL [YOR098C/NUP1] as the sequence, how does the protein stability index read?
A: 3.36 ± 0.062

Q: For QLDEFKNKYLKDVLAQT [SWP82], which protein stability index is on record?
A: 2.4 ± 0.1

Q: Which protein stability index does the source give for QLDSYLVNGFSQSQQKL [MED2] here?
A: 2.38 ± 0.064

Q: With QLEDESSRLEFVKGISR [YML103C/NUP188] as the sequence, how does the protein stability index read?
A: 3.33 ± 0.067

Q: Which protein stability index does the source give for QLFNWCLMRSLHKLELK [DSN1] here?
A: 1.14 ± 0.13

Q: With QLFSTFDRLNGNDTISK [SSN2] as the sequence, how does the protein stability index read?
A: 3.19 ± 0.076

Q: For QLIFRQQTGLVDAITRC [SNU114], which protein stability index is on record?
A: 3.04 ± 0.052

Q: For QLKYDTSVQEKELMLQS [YIL149C/MLP2], which protein stability index is on record?
A: 2.81 ± 0.1

Q: Which protein stability index does the source give for QLLDIAEFKKENLADLD [LIN1] here?
A: 1.24 ± 0.12

Q: With QLNEKLVGRLRKCETQK [YCS4] as the sequence, how does the protein stability index read?
A: 2.22 ± 0.1

Q: With QLVYKRGFGKINKQRVP [RPL7A] as the sequence, how does the protein stability index read?
A: 3.24 ± 0.11

Q: For QMDQQLQYTALTGSPNN [ARP7], which protein stability index is on record?
A: 3.33 ± 0.071

Q: With QMTQIMDIMEDFLRYIN [SNF2] as the sequence, how does the protein stability index read?
A: 1.4 ± 0.08

Q: Which protein stability index does the source give for QNAADLQQICRVRNKDI [RPL9A] here?
A: 2.59 ± 0.087

Q: Which protein stability index does the source give for QNDELTMGMRALLKLSV [DIS3] here?
A: 1.55 ± 0.067

Q: Which protein stability index does the source give for QNFAEFMTKLLEVANDL [IRR1] here?
A: 3.13 ± 0.085

Q: Which protein stability index does the source give for QNHNSKSTDNSAIRQVF [IRR1] here?
A: 2.85 ± 0.042

Q: For QNIETRQLANLIPFIVK [NUT1], which protein stability index is on record?
A: 1.41 ± 0.086

Q: Which protein stability index does the source give for QNIMTLPDGKNGNLEEE [MED6] here?
A: 3.37 ± 0.056

Q: Which protein stability index does the source give for QNKLFYITNADDSTKFQ [SIR3] here?
A: 3.01 ± 0.078

Q: Which protein stability index does the source give for QNNEQNPIDPFNIIREF [YDL116W/NUP84] here?
A: 3.2 ± 0.04

Q: With QNRRLAFEELEGSWDRG [PRP8] as the sequence, how does the protein stability index read?
A: 3.24 ± 0.15

Q: Which protein stability index does the source give for QPAQPRESRIVSTEGNV [RPL21A] here?
A: 3.04 ± 0.069

Q: With QPMISPDNSIFGDTKSE [SWI3] as the sequence, how does the protein stability index read?
A: 2.94 ± 0.098

Q: With QPNARALERYDEAEGRF [SMC1] as the sequence, how does the protein stability index read?
A: 3.17 ± 0.074

Q: With QPQQQLGDMENNLEKYP [RTT102] as the sequence, how does the protein stability index read?
A: 3.62 ± 0.077

Q: With QPTPRSASNTAKSTPNT [GAL11] as the sequence, how does the protein stability index read?
A: 2.75 ± 0.058

Q: For QQKQQQQQQQHQQQQQQ [SNF5], which protein stability index is on record?
A: 2.81 ± 0.029

Q: With QQLRRALPDVVVKGLPD [RPO31] as the sequence, how does the protein stability index read?
A: 1.93 ± 0.078

Q: Which protein stability index does the source give for QQPNPLQDLISVYGLDD [ROX3] here?
A: 2.02 ± 0.15

Q: For QQQQAAALANANNNINS [SWI1], which protein stability index is on record?
A: 2.46 ± 0.047

Q: Which protein stability index does the source give for QQQQQQQQQQQQQGQIP [SNF5] here?
A: 2.75 ± 0.022

Q: With QQQTNALNGIDINTVNT [GRR1] as the sequence, how does the protein stability index read?
A: 3.24 ± 0.044

Q: With QQRFQALQQQQQQQQNQ [SWI1] as the sequence, how does the protein stability index read?
A: 2.25 ± 0.052

Q: For QQRIREIGLLPEDALVN [SMC3], which protein stability index is on record?
A: 3.27 ± 0.2

Q: Which protein stability index does the source give for QQTGLVDAITRCYQPFE [SNU114] here?
A: 3.04 ± 0.041

Q: For QRDLGLYVVGLFDTYHA [RRP6], which protein stability index is on record?
A: 1.91 ± 0.062

Q: Which protein stability index does the source give for QRDLYKRKEELVSTLTT [SMC2] here?
A: 2.64 ± 0.071

Q: With QRFVGHKSDVMSVDIDK [ASC1] as the sequence, how does the protein stability index read?
A: 2.69 ± 0.082

Q: With QRIAKNDPEYMDTSDDA [DLS1] as the sequence, how does the protein stability index read?
A: 2.82 ± 0.15

Q: Which protein stability index does the source give for QRILEVLGTPDQKIWPY [SSN3] here?
A: 1.76 ± 0.093

Q: Which protein stability index does the source give for QRTATLCLEKLMCLSSK [YCS4] here?
A: 2.49 ± 0.11

Q: For QRTLSKSFYSTATGAAS [CYT1], which protein stability index is on record?
A: 2.43 ± 0.068

Q: With QRVFKPVDITMMENYQN [PRP8] as the sequence, how does the protein stability index read?
A: 2.71 ± 0.073

Q: For QRYVKSVKSVKFPTRKI [RPC34], which protein stability index is on record?
A: 3.26 ± 0.11
